system: K4 kissing-loop RNA reporter; assay: apparent KD of K4 kissing-loop reporter; higher = weaker reporter binding; settings: Eterna round: R107; input ligand: FMN 200 uM
Method: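 RNA-MaP round R107: designed RNA switches with theophylline, tryptophan, arginine or FMN aptamers are transcribed on-chip within common flanks. They are titrated with a labelled K4 kissing-loop RNA reporter in RNA-MaP buffer (100 mM Tris pH 7.5, 80 mM KCl, 4 mM MgCl2), without ligand or with the indicated ligand. Median apparent KD per design.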
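Also: bound reporter read as fluorescence of individual clusters on recovered sequencing chips by microscopy, with normalized cluster intensities fitted with a binding model.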

Sequence	apparent KD of K4 kissing-loop reporter
CAACGAGUGAUGGUCGUUGACGGCCAUCCCGAGGAUAUGGGAUUUUCCAGAAGGCGGGAUCGCCCGGAGUGAUGUUCCGUGAUUU [Same State FMN A GF 15]	73.3 nM
UUUUAAAUGUCUGAUACCAGAGAAAAUAUAUGUAGUGAUGUUAUAUACAAAAUAAAUAAGCUCCCUUGGCAGCAGUAUUAAUUUU [AstrosExc-TheB#6]	679 nM
AAAGAUGCGUCGGCCGCCACUGUGAUCUACGAAAGUAGUAUGUAGAUGCAGUGAUGUUGCAUUUUCAGGACCGGGACGUAAGAUG [3rd]	447 nM
AAUUCAGUGAUGUUGGAAGGCAGGCGGGAUACCAGCGGAGAAUAACGCCCUUGGCAGCCCAAAUAUCCCAAAUAGAUAAUAGUUC [Same State - Theophylline A (Freestyle 2)]	474 nM
GGUGCUGUUUGUGCCGCCUUCCUCGUUCCUCGAGGACCGGUACGGCCGCCACUCGAGUGAUGUUUGGGUAGCGAUCCCUGCUAGU [Bdazzled - #13 Exc. Tryptophan A]	892 nM
UUAGGAGUGGGAGGAUAUCCUAAUAUGGGUGAUGUUAGCGAUGUUGAAAGUGUAGUGAUGUUGUGCGGAGAAGGUCCAGUGUUGA [BDazzled - #13 - Exc. FMN B]	196 nM
UUCGAAAGUCGAAGGAGCGCUGUCGGUCAUAGACCAUAUCUGUAGUGAUGUUACAGAUGACAGCAGGUAGGUCGCGACAGAGACA [Arg B SS t18]	148 nM
GUGCGCGGUGCGGCCGCCACUCGGAUGCGAGUGAUGUUCGCGGGACGGACGCAAGUCCGUCAUUCGAGGACCGGGCAUGGCUGUA [#2 Same State - Tryptophan B Attempt #5 (HarryS)]	336 nM
UGUACCGAGUCAGGAUAUCAUAAUAAAUCCAGUGAUGUUGGAAUAACCAGUACAAAGUACUGGCCUUGAGAAGGGACUUGGUACU [FmnBS 3 #SwitchBubble #StaticStem]	167 nM
AGGCACGAGCAAGGAUAUUGAGUAGAGUGAUGUUCUGCCUGGGUUGGCUCGAAAGAGCCUUCUCAGCGAGAAGGUGCUCGUGCCU [#2 Same State - FMN A Attempt #22 (HarryS)]	290 nM
AAAAUAAUCCAGUGAUGUUGGUAUUCAGAUACCAGCGACGAAAGUCGCCCUUGGCAGCUGUGGACGUACAAAAUAAGUACGUCCU	967 nM
CCGUGGAGUGAUGUUCCACGUACUACGGAUACCAGCUUUGCCAAAGGCCCUUGGCAGCCGCACGUUGCAGUGAUGUUGUGGCGCG [Same State Theophylline A G9]	345 nM
UGUUUUUACUGAAGGAGCGGCAAUUGAUACGUAGAUAUAGUGAUGUUAUAUAAGAUAGAGAGCCAGGUAGGUCGCAGAAUGUAUC [ExArgB.aC]	214 nM
UUGGCUGGACGGGAUACCAGCCAAAUCGUGGGCUUGGGAUGUCUAAGAGCCAGUGAUGUUGGCCCUUGGCAGCCCUCCCAGCUUG [Xerirala]	104 nM
UGUCAUUGGUCGGCCGCCACUUGAAGGUCAAAGACCAUAGAGUGAUGUUCUAAGACGAAAGUCACAAGGACCGGGACCGAUGACU [TrypBS 3 #SwitchBubble #K4Middle]	361 nM
UGUUAUGUAUCAGGAUAUUAGUGAUGUUUGUUGAUGUUAGUGAUGUUGAUAUUUGUUUUAUGUAUUUAAGAAGGGAUUGAGAUGU [ooilmullin]	53.9 nM
UUUAAAUAUAGUGAUGUUAUAUAACAAUGACGAGGACCGGUACGGCCGCCACUCGAGAGAGAUAAUGGUCAUACAAAUGUAUGUC [AstrosSSTryA#7]	799 nM
UUUUGGUACUGAGGAUAUUCGACGAAAUAUAGUGAUGUUAUAUAAGGAGGAGGAGGGUGGGAGGAAGGAGAAGGCAGAAGAGGAG [#06 K4 FMN B Exclusion]	285 nM
GAUGCCAUGAUCCUCCUGGUAUCGGGAGAUACCAGCGUGCUGACACGCCCUUGGCAGCUCCAUUCGAGAGUGAUGUUGUCGAGAA [KL-SSTheo-A8 #analogue]	453 nM
GGAUAGGACGGAGGAUAUGGUAGUGAUGUUACCAAACUGGUUAAACAUGUCAGAAAACUGGCAUGACCAGAAGGCUGUCCUAUCG [FmnBX 27 G10]	112 nM
GGCCGCAAGGCGAGCGCUCCCACUCCGGAAGGAGCGCCCGGAAGGGCAGGUAGGUCGCCGGAGUGAUGUUCCGGUGGAGGGCUCG [#2 Exclusion - Arginine A Attempt #18 (Inspired by Omei)]	435 nM

Sequence	apparent KD of K4 kissing-loop reporter
UAGGAGUGAUGUUCCAUAUGUAAGGCCGAAGGAGCGGCAUUAUAGCCAGGUAGGUCGCGGCAGUACGUACCAGUGAUGUUGGAAA [KL-SSArg-A5]	173 nM
CCGCUACCCUCAGGAUAUUAAUAUGGAGUGAUGUUCUAUGUCCGAUGGCGGAAACGCCAUCGGGAAUAAGAAGGGAGGGUAGCGG	189 nM
AGCCGAAAGGCGAGUGCUGUCACUCCGGAAGGAGCGGCGAAAACGCCAGGUAGGUCGCCGGAGUGAUGUUCCGGUGCAGCACUCA [Omei KL Arginine A Exc B v2]	603 nM
AGCAAUAUCACGGCCGCCACUGAAUAUUGUUUUUAUAUUUAGAAAUCUUGCCAGUGAUGUUGGUUCAGGACCGGGUGAGUUAAUA [JR_SSTryptoB_Sub005]	435 nM
GGGCGCGGCGCGGCCGCCACUGCGCCUGGGUGCUCGCCGAGUGAUGUUCGUCGGCGGUUGGGUGGCAGGACCGGGUGCCGGCCCG [BDazzled - #17 SS Tryptophan B]	1580 nM
AUUACAUCUGAAAAGCUAGUGAUGUUAGCUCGAGGACCGGUACGGCCGCCACUCGCAUAGCGAGGCCAAGUCGCGGUUAACGGAG [theeternabot_exclusion_KL_Trp_A_4]	96.7 nM
UGAUACCAGACUGAUACCAGCGAGUGAUGUUCGCUGAAAUCAGGGUCAAAGACCCUGUCUCGCCCUUGGCAGCAGUCUGGUAUCU [TheoBX 20 #SwitchBubble #StaticStem]	147 nM
UGGAUAUAGUGAUGUUAUAUAGAGAUGGAUACCAGCUAAGAGAAUAGCCCUUGGCAGCCGAAAGAAGUAUCAUUAGAGAAGAAUG [ExTheophyl.Ae]	294 nM
UGACAUUGCUCAGAUACCAGACAUGAGCAUCAGCCAUGUGCCAAAACGUACUAAAUAAAUGUCCCUUGGCAGCUGAGCAAUGUCU [TheoBX 13]	65 nM
CUUGAUGUAGCGGCCGCCACUCUAGAUCCGCAUCGGAUGAGGUACUUGAAGUGAUGUUUUGAGGUGAGGACCGGGCUCUAAAGAA [theeternabot_sameState_KL_Trp_B_16]	750 nM
AAAAUAAACCAGUGAUGUUGGUGUCCAGAUACCAGCGAUAAAAUUCGCCCUUGGCAGCUGUGGACGUACAAAAUAAGUACGUCCU [MatMod 3 - Jieux - Same State - Theophylline A]	734 nM
CCGUAUGUCCACUAUUGAGUGAUGUUCAAGCGAGGACCGGUACGGCCGCCACUCGCGUUACCCACCACGUGUCGCCGCACUUACC [theeternabot_exclusion_KL_Trp_A_42]	203 nM
CCGGCCCAGCCGGAUACCAGUGCGCCGCAGGGAACGGCGGGCCCAGAGUGAUGUUCGGGACACCCUUGGCAGCCGCCUGGGUCCC [#2 Same State - Theophylline B Attempt #30 (HarryS)]	618 nM
GCUCAUCCGGCAGGAUAUAGGCAGGUAGAGUGAUGUUCGAACUGCAGUUAUCCAUCCUUCUACCUACUAGAAGGGCCGGAUGAGC	376 nM
GACGUGCGAGAGACCGCUCUACCUUGAGAUCGAGGACCGGUACGGCCGCCACUCGGUGUUUAACGUCGAUCCCAGUGAUGUUGGA [theeternabot_sameState_KL_Trp_A_21]	521 nM
GCCGUACGCAUGGAUACCAGAGAUGUUAAUCUCGAUGCCAGUGAUGUUGGCUUUAGCAUACUCCCUUGGCAGCCAUGCGUACGGC	312 nM
CGAGAAAGAGCGACUGGCGAUCUGUCUGAAGGAGCGGGUGCUAGCCCAGGUAGGUCGCAGACUUUGACGCCAGUGAUGUUGGCGG [Titidiisxe]	210 nM
UAUAGAGUGACGGCCGCCACUAUUGUGAUUUAAUUGUUAGAGUGAUGUUUUGUUGUUUGAUUUUGUAGGACCGGGUUAUAUGUUA [ecewzmullin]	1050 nM
UGCGCUGUGUCCUAAAAUGUCCUCCGGGAUACCAGAGUCUUUUUAUUCCCUUGGCAGCUUGAGUGAUGUUUGAUGCCGUUCUUGU [xxbxymullin]	811 nM
UCGCGUCUGUGAGGAUAUCAGAACAGAGUGAUGUUCUGUCAACGCCCAGUGAUGUUGGAUGCGAUCUGAGAAGGCACUGGGCGCA [Same State FMN B GF 9]	1060 nM
CUUGUACAUGCCGAGGUAGGUGCGGGUUAGCGAGGACCGGUACGGCCGCCACUCGCCAAGUGAUGUUUGGUCCUUUGGAUCGGCA	1220 nM

same assay, conditions: Eterna round: R107; input ligand: arginine 13.2 mM

Sequence	apparent KD of K4 kissing-loop reporter
CAACGAGUGAUGGUCGUUGACGGCCAUCCCGAGGAUAUGGGAUUUUCCAGAAGGCGGGAUCGCCCGGAGUGAUGUUCCGUGAUUU [Same State FMN A GF 15]	228 nM
UUUUAAAUGUCUGAUACCAGAGAAAAUAUAUGUAGUGAUGUUAUAUACAAAAUAAAUAAGCUCCCUUGGCAGCAGUAUUAAUUUU [AstrosExc-TheB#6]	632 nM
AAAGAUGCGUCGGCCGCCACUGUGAUCUACGAAAGUAGUAUGUAGAUGCAGUGAUGUUGCAUUUUCAGGACCGGGACGUAAGAUG [3rd]	362 nM
AAUUCAGUGAUGUUGGAAGGCAGGCGGGAUACCAGCGGAGAAUAACGCCCUUGGCAGCCCAAAUAUCCCAAAUAGAUAAUAGUUC [Same State - Theophylline A (Freestyle 2)]	353 nM
GGUGCUGUUUGUGCCGCCUUCCUCGUUCCUCGAGGACCGGUACGGCCGCCACUCGAGUGAUGUUUGGGUAGCGAUCCCUGCUAGU [Bdazzled - #13 Exc. Tryptophan A]	621 nM
UUAGGAGUGGGAGGAUAUCCUAAUAUGGGUGAUGUUAGCGAUGUUGAAAGUGUAGUGAUGUUGUGCGGAGAAGGUCCAGUGUUGA [BDazzled - #13 - Exc. FMN B]	126 nM
UUCGAAAGUCGAAGGAGCGCUGUCGGUCAUAGACCAUAUCUGUAGUGAUGUUACAGAUGACAGCAGGUAGGUCGCGACAGAGACA [Arg B SS t18]	120 nM
GUGCGCGGUGCGGCCGCCACUCGGAUGCGAGUGAUGUUCGCGGGACGGACGCAAGUCCGUCAUUCGAGGACCGGGCAUGGCUGUA [#2 Same State - Tryptophan B Attempt #5 (HarryS)]	274 nM
UGUACCGAGUCAGGAUAUCAUAAUAAAUCCAGUGAUGUUGGAAUAACCAGUACAAAGUACUGGCCUUGAGAAGGGACUUGGUACU [FmnBS 3 #SwitchBubble #StaticStem]	146 nM
AGGCACGAGCAAGGAUAUUGAGUAGAGUGAUGUUCUGCCUGGGUUGGCUCGAAAGAGCCUUCUCAGCGAGAAGGUGCUCGUGCCU [#2 Same State - FMN A Attempt #22 (HarryS)]	603 nM
